Experimental findings from article PMC8026774 (Cellular and molecular neurobiology, 2020) are described below.

As usually defined, the Ki is a measure of affinity in units of concentration, obtained from inhibition or displacement. Read a low Ki as a stronger hold on the target.

For test [1], the target named is T1, MOR-1-PK (mouse, UniProt P42866 1-398). Description: radioligand binding.
The next test addresses MOR-1 (untagged) (mouse, UniProt P42866 1-398). Description: radioligand binding.
For test [2], the target named is T1, MOR-1-PK. Description: cell-based or functional assay.
Another test deals with MOR-1A-PK (mouse). The experiment in a line: cell-based or functional assay.
In a further test the target is MOR-1E-PK (mouse). Description: cell-based or functional assay.
The target in the next test is MOR-TR-PK (mouse). The experiment in a line: cell-based or functional assay.
Another test has as its target MOR-1B1-PK (mouse). The experiment in a line: cell-based or functional assay.

Where no end group is shown, it is not given here.

T1 sequence (P42866 whole entry): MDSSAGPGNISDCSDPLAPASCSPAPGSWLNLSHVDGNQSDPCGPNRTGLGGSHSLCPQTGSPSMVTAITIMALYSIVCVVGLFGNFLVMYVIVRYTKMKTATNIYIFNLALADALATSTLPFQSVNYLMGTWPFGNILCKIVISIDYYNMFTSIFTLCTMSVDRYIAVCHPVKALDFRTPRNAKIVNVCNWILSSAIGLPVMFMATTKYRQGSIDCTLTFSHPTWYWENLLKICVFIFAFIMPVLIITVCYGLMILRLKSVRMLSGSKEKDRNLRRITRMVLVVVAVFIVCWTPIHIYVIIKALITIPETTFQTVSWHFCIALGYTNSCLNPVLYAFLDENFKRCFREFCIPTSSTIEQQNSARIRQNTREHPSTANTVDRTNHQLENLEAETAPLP
Sequence of MOR-1 (untagged) (P42866 whole entry): as above
Sequence of MOR-1E-PK (mouse) (P42866 whole entry): as above
Sequence of MOR-1B1-PK (mouse) (P42866 whole entry): as above
Sequence of MOR-1A-PK (mouse) (P42866 whole entry): as above
Sequence of MOR-TR-PK (mouse) (P42866 whole entry): as above

YGGFMTSEKSQTPLVTLFKNAIIKNAYKKGE (not fully specified) [β-endorphin]: the Ki with MOR-1-PK [1] was 10.4 nM; in the test with MOR-1 (untagged), 6.22 nM. Also, the “[35S]GTPγS binding (G-protein activation), EC50” value was determined as 118 nM with MOR-1-PK [2]; 112 nM with MOR-1A-PK; 23 nM in the test with MOR-1E-PK; 691 nM with MOR-TR-PK; 141 nM with MOR-1B1-PK.
